In publication PMC3096069 (Journal of molecular biology, 2011):
Numbering of substitutions follows the chain as printed. Values belong to the molecule of their own block, whether it stands above or below them.

B1: Pf1 200-241 (human Pf1 residues 200-241, wild type) (domain or fragment, UniProt Q96QT6 200-241, looked up)
chain: DYVQPQLRRPFELLIAAAMERNPTQFQLPNELTCTTALPGSS
B2: Pf1 200-241 Asn221Glu (domain or fragment, human, UniProt Q96QT6 200-241, looked up)
chain: B1 chain with N22E
B3: Pf1 200-241 Leu212Ala (domain or fragment, human, UniProt Q96QT6 200-241, looked up)
chain: B1 chain with L13A
B4: Pf1 200-241 Phe225Ala (domain or fragment, human, UniProt Q96QT6 200-241, looked up)
chain: B1 chain with F26A
B5: mSin3A PAH2 (mammalian Sin3A PAH2 domain, residues 295-385) (domain or fragment, UniProt Q60520 295-385, looked up)
chain: SLQNNQPVEFNHAINYVNKIKNRFQGQPDIYKAFLEILHTYQKEQRNAKEAGGNYTPALTEQEVYAQVARLFKNQEDLLSEFGQFLPDANS

Key:
[1] = target: mSin3A PAH2 (Mus musculus) (UniProt Q60520); conditions: cited from earlier work
Sequence of mSin3A PAH2 (Mus musculus) (Q60520 297-386): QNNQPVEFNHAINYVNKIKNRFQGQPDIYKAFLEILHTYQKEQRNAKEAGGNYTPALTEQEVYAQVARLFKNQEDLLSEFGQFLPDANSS

[2] = target: Pf1 200-241 (human Pf1 residues 200-241, wild type) (human) (UniProt Q96QT6); test: ITC
[3] = target: B5; test: ITC
[4] = target: MRG15 MRG (human MRG15 MRG domain, residues 155-323) (human, UniProt Q9UBU8-2 155-323); test: ITC
Sequence of MRG15 MRG (human MRG15 MRG domain, residues 155-323) (Q9UBU8 194-362): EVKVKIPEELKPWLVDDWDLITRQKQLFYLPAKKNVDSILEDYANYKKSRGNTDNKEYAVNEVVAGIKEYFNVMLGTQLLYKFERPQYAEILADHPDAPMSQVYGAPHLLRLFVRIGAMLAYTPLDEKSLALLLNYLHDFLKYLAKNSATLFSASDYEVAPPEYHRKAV

[5] = target: B2; test: ITC
[6] = target: B4; test: ITC
[7] = target: B1; test: ITC
[8] = target: B3; test: ITC

Molecule: Mad1/Mxd1 (from UniProt Q05195)
Kd [1]: 0.05 µM

Kd [2]: 2.93 µM
dH [2]: -9.64 kcal/mol
stoichiometry N [2]: 1.02
Molecule: mSin3B PAH2 (mammalian Sin3B PAH2 domain) (domain or fragment)

Molecule: B1
Kd [3]: 2.15 ± 0.45 µM
Kd [4]: 0.015 ± 0.003 µM
dH [4]: -13.1 ± 0.4 kcal/mol
stoichiometry N [4]: 0.82 ± 0.08

Molecule: B2
Kd [3]: 0.63 ± 0.05 µM

Molecule: B3
Kd [3]: 2.66 ± 0.46 µM

Molecule: B4
Kd [3]: 1.65 µM

Molecule: B5
dH [5]: -7.67 ± 0.43 kcal/mol
stoichiometry N [5]: 1.16 ± 0.08
dH [6]: -4.97 kcal/mol
stoichiometry N [6]: 1.12
dH [7]: -6.58 ± 0.48 kcal/mol
stoichiometry N [7]: 0.99 ± 0.05
dH [8]: -4.31 ± 0.49 kcal/mol
stoichiometry N [8]: 1 ± 0.11
